# Measured values taken from paper PMC6821933, “IMP-68, a Novel IMP-Type Metallo-β-Lactamase in Imipenem-Susceptible Klebsiella pneumoniae” (mSphere, 2019).
# Assays:
# [1] = test system: T1, IMP-11; assay: spectrophotometric initial hydrolysis rates, […] nm, Michaelis-Menten; type: biochemical; details: 50 mM sodium phosphate pH 7.0, 50 μM ZnCl2, 24 ± 1 °C
# T1 construct: gene blaIMP-11; signal peptide (first 19 aa) removed; His tag cut off with PreScission protease; expressed in E. coli Rosetta II
# [2] = test system: T1, IMP-11; assay: as above; type: biochemical; details: 50 mM sodium phosphate pH 7.0, 50 μM ZnCl2, 24 ± 1 °C; remark: listed apart in the source
# [3] = test system: T1, IMP-11; assay: as above; type: biochemical; details: 50 mM sodium phosphate pH 7.0, 50 μM ZnCl2, 24 ± 1 °C; remark: listed apart in the source
# [4] = test system: CC(C)(O/N=C(\C(=O)N[C@@H]1C(=O)N2C(C(=O)[O-])=C(C[n+]3ccccc3)CS[C@H]12)c1csc(N)n1)C(=O)O; assay: purified protein; type: biochemical, Klebsiella pneumoniae; details: 50 mM sodium phosphate pH 7.0, 50 μM ZnCl2, 24 ± 1 °C, 24.0 °C
# [5] = test system: CC1(C)S[C@@H]2[C@H](NC(=O)[C@H](N)c3ccccc3)C(=O)N2[C@H]1C(=O)O; assay: purified protein; type: biochemical, Klebsiella pneumoniae; details: 50 mM sodium phosphate pH 7.0, 50 μM ZnCl2, 24 ± 1 °C, 24.0 °C
# [6] = test system: CO/N=C(\C(=O)N[C@@H]1C(=O)N2C(C(=O)O)=C(COC(C)=O)CS[C@H]12)c1csc(N)n1; assay: purified protein; type: biochemical, Klebsiella pneumoniae; details: 50 mM sodium phosphate pH 7.0, 50 μM ZnCl2, 24 ± 1 °C, 24.0 °C
# [7] = test system: C[C@@H](O)[C@H]1C(=O)N2C(C(=O)O)=C(SCCN=CN)C[C@H]12; assay: purified protein; type: biochemical, Klebsiella pneumoniae; details: 50 mM sodium phosphate pH 7.0, 50 μM ZnCl2, 24 ± 1 °C, 24.0 °C
# [8] = test system: C[C@@H](O)[C@H]1C(=O)N2C(C(=O)O)=C(S[C@@H]3CN[C@H](C(=O)N(C)C)C3)[C@H](C)[C@H]12; assay: purified protein; type: biochemical, Klebsiella pneumoniae; details: 50 mM sodium phosphate pH 7.0, 50 μM ZnCl2, 24 ± 1 °C, 24.0 °C
compound,measurement,setting,value
CC1(C)S[C@@H]2[C@H](NC(=O)[C@H](N)c3ccccc3)C(=O)N2[C@H]1C(=O)O [Ampicillin],Km,[1],830 ± 248 µM
CO/N=C(\C(=O)N[C@@H]1C(=O)N2C(C(=O)O)=C(COC(C)=O)CS[C@H]12)c1csc(N)n1 [Cefotaxime],Km,[2],11.8 ± 2.2 µM
CC(C)(O/N=C(\C(=O)N[C@@H]1C(=O)N2C(C(=O)[O-])=C(C[n+]3ccccc3)CS[C@H]12)c1csc(N)n1)C(=O)O [Ceftazidime],Km,[2],232 ± 18.9 µM
C[C@@H](O)[C@H]1C(=O)N2C(C(=O)O)=C(SCCN=CN)C[C@H]12 [Imipenem],Km,[3],41 ± 18.4 µM
C[C@@H](O)[C@H]1C(=O)N2C(C(=O)O)=C(S[C@@H]3CN[C@H](C(=O)N(C)C)C3)[C@H](C)[C@H]12 [Meropenem],Km,[3],14.8 ± 2.8 µM
IMP-68 (Klebsiella pneumoniae),Km,[4],326 ± 131 µM
same,kcat,[4],3.9 ± 2.1 s⁻¹
same,kcat/Km,[4],12000 M⁻¹ s⁻¹
same,Km,[5],465 ± 200 µM
same,kcat,[5],1.7 ± 0.44 s⁻¹
same,kcat/Km,[5],3700 M⁻¹ s⁻¹
same,Km,[6],10.3 ± 2.3 µM
same,kcat,[6],25.7 ± 1.3 s⁻¹
same,kcat/Km,[6],2.5e+06 M⁻¹ s⁻¹
same,Km,[7],347 ± 52.2 µM
same,kcat,[7],36.7 ± 7.8 s⁻¹
same,kcat/Km,[7],110000 M⁻¹ s⁻¹
same,Km,[8],10.1 ± 0.94 µM
same,kcat,[8],9.7 ± 1.7 s⁻¹
same,kcat/Km,[8],890000 M⁻¹ s⁻¹
